Results on 17 molecules are retold here after US20230068663A1 (University of Texas, published 2023).

The term EC50 denotes the concentration giving half of the maximal effect.

Assay [1] deals with T1, LILRB2 chimeric receptor on LILRB2 reporter cells (extracellular domain of LILRB2 fused with … (UniProt Q8N423 22-460)).
T1 construct: extracellular domain;domain: transmembrane/intracellular domains; associates with DAP12; also called LILRB2-expressing reporter cells
The experiment in a line: flow cytometry, LILRB2 reporter cells. An excerpt: FIGS. 1A-C. Screening specific monoclonal antibodies for LILRB2. […] Binding of monoclonal antibodies was screened using flow cytometer on LILRB2 reporter cells. Bound antibodies were detected with Allophycocyanin (APC)-labeled goat anti-human IgG secondary antibody. (FIG. 1B) Quantification of binding ability of monoclonal antibodies to LILRB2 reporter cells.
Screening specific monoclonal antibodies for LILRB2. The inventors employed a stable reporter cell system to detect the binding ability of selected monoclonal antibodies to LILRB2. In this chimeric receptor reporter system, the extracellular domain (ECD) of LILRB2 is fused with transmembrane/intracellular domains of PILRb that associates with the adaptor protein DAP12 containing an immunoreceptor tyrosine-based activation motif. 27 monoclonal antibodies were screened. The LILRB2 reporter cells were incubated with selected monoclonal antibody, then labeled with (APC) goat anti-human IgG secondary antibody. […] The inventors generated LILRBAs and LILRBs reporters stably transduced with each receptor's extracellular domain (ECD).

The target in another assay is T2, LILRB2-His antigen (UniProt Q8N423 22-460, limits assumed).
T2 construct: Coated on ELISA plates; also used for phage panning; also called LILRB2 antigen; not shown: His tag
The experiment in a line: indirect ELISA, coated LILRB2-His. The protocol: ELISA binding EC of LILRB2 antibodies. The ELISA binding EC₅₀ of these 24 antibodies were measured by indirect ELISA. […] After incubation, HRP-conjugated goat anti-human Fc secondary antibody was incubated with the plates. The TMB substrate was added for color development and measurement of absorbance at 450 nm.
A general note: In an ELISA, binding on a coated surface is turned into a signal by an enzyme label.

Assay [2] has as its target T3, full extracellular domain (ECD) of LILRB2 fused to Fc fragment of mouse IgG2a (human; mouse, UniProt Q8N423 22-460).
T3 construct: extracellular domain; also called B2-ECD; wildtype B2-ECD; not shown: Fc fragment of mouse IgG2a
The experiment in a line: ELISA, coated human LILRB2 ECD-mIgG2a Fc [panel A]. An excerpt:
FIGS. 19A-B. ELISA binding measurement of antibodies to human and non-human primate (cynomolgus monkey, cyno) LILRB2 recombinantly produced in HEK293 cells. (FIG. 19A) ELISA binding to human LILRB2. (FIG. 19B) ELISA binding to cyno-LILRB2. The fusion proteins of the extracellular domain (ECD) of human LILRB2 or NHP-LILRB2 with Fe of mouse IgG2a were used to coat ELISA plates and antibodies were titrated in different concentrations as indicated in the graph.

B1: B2-2 (antibody, V domains shown)
VH: QVQLVQSGAEVKKPGASVKVSCKASGYTFSDYGFSWVRQAPGQGLEWMGWISGYNGNTNYAQKFQGRVTMTIDASTSTAYMELRSLKSDDTAVYYCARLLLGYYGMDVWGQGTTVTVSS
VL: DIVMTQSPSSLSASVGDRVTLTCRASQSIGNYLNWYQQKPGKAPNLLIYAASSLQSGVPSRFSGSGSGTDFTLTISSLQPEDFATYYCQQSFSIPPITFGQGTRLEIK
notes: also called B2-2_HC; B2-2_LC
Regarding B1, the “% of cells anti-hIgG APC+” value in assay [1] turned out to be 0.14%. Further, the EC50 in the assay with LILRB2-His antigen was 1.6 nM.

B2: B2-3 (antibody, V domains shown)
VH: QVQLVQSGAEVKKPGASVKVSCRTSGYTFSSYGISWVRQAPGQGLEWMGWISGNTGNTKYTPKLQGRVTMTTDTSTSTAYMELRSLRSDDTAVYYCARDRGIAAGRAFDIWGQGTMVTVSS
VL: QPVLTQPPSASGTPGQRVTISCSGSSSNIGTNPVNWYQQVPGTGPKLLIYNNNQWPSGVPDRFSGSKSATSASLAIYGLQSGDEAHYYCSSWDDSLSAWVFGGGTKVTVL
notes: also called B2-3_HC; B2-3_LC
For the molecule B2, the “% of cells anti-hIgG APC+” value in assay [1] was found to be 0.58%. The concentration for a half-maximal effect (EC50) in the assay with LILRB2-His antigen was 0.787 nM.

B3: HCB2-4 (antibody, V domains shown)
VH: QVELQESGPGLVKPSETLSLTCTVSGDAIKDKYWSWVRQPPGKGLEWIGYISNSGSTNYNPSLKSRVSLSVDTSKNQFSLKQTSVTAADTATYYCARGSGYTAFDIWGQGTMVTVSS
VL: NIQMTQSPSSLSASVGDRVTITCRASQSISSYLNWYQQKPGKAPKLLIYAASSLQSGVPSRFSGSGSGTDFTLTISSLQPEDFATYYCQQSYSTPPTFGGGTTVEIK
notes: also called HCB2-4_HC; HCB2-4_LC
In the case of B3, the binding result in assay [2] is reported as “binds”.

B4: B2-11 (antibody, V domains shown)
VH: QVQLQQSGPGLVKPSQTLSLTCAISGDSVSSNSAAWNWIRQSPSRGLEWLGRTYYRSKWYNDYAVSVKSRITINPDTSKNQFSLQLNSVTPEDTAVYYCARQDESAADDAFDIWGQGTLVIVSS
VL: QSVLTQPPSASGTPGQRVTISCSGSKSNVGNNFVHWYQQLPGTAPKLLLYSNLERSSGVPERFSGSKSGTSAYLAISGLRSDDEADYYCAAWDDSLPGWVFGGGTKLTVL
notes: also called B2-11_HC; B2-11_LC
In the case of B4, the “% of cells anti-hIgG APC+” value in assay [1] amounted to 0.28%. The molecule further came in with an EC50 in the assay with LILRB2-His antigen of 3.79 nM.

B5: B2-4 (antibody, V domains shown)
VH: QVQLVQSGPTVRKPGASVRVSCKASGYPFTSNGMSWVRQAPGQGLEWMGWISTNSGNTNYAQKFQGRVTLTTDTSSTTTYLDLRSLTSDDTAIYYCARDVQYRMDVWGQGTTVTVSS
VL: QSVLTQPPSASGTPGQRVTISCSGSRSNIGSNPVNWYQHLPGTAPKLLVYSNNRRPSGVPDRFSGSKSGTSASLSISGLQSEDEGVYYCAAWDDNVHGVFGGGTKVTVL
notes: also called B2-4_HC; B2-4_LC
Turning to B5, in assay [1], the “% of cells anti-hIgG APC+” value turned out to be 0.7%. A half-maximal effect with LILRB2-His antigen (EC50) was put at 1.76 nM.

B6: B2-23 (antibody, V domains shown)
VH: QVQLVQSGAEVKKPGASVKVSCKASGYTFTHSYIHWVRQAPGQGLEWMGVINPVGGSTTYAQRFQGRVTMTRDTSTSTVYMELSSLRSEDTAVYYCARAGGDGYNPYFDYWGQGTLVTVSS
VL: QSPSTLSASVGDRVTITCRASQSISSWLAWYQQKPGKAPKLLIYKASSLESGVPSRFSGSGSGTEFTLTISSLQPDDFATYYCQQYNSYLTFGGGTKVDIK
notes: also called B2-23_HC; B2-23_LC
B6: the “% of cells anti-hIgG APC+” value in assay [1] stood at 0.47%. A half-maximal effect in the assay with LILRB2-His antigen (EC50) was put at 2.44 nM.

B7: HCB2-1c (antibody, V domains shown)
VH: EVQLVQSGAEVKKPGASVKVACKASGYTFTDYYIHWVRQAPGQGLEWMGIVNANGGDTNYAQQFQGRVTMTRDTSTSTVYLELTSLRSDDTAVYYCARDWYYYSSGSFPFDYWGQGTLVSVSS
VL: AIQMTQSPSSLSASVGDRVSITCRASQSISSFLNWYQQRPGKAPELLIYGASSLQSGVPSRFSGSGSGTDFTLTISSLQPEDFATYYCQQSYSIPITFGQGTQLEIK
As for B7, the binding result in assay [2] is on record as “binds”.

B8: HCB2-1d (antibody, V domains shown)
VH: EVQLVQSGAEVKKPGASVKVACKASGYTFTDYYIHWVRQAPGQGLEWMGIVNANGGDTNYAQQFQGRVTMTRDTSTSTVYLELTSLRSDDTAVYYCARDWYYYSSGSFPFDYWGQGTLVSVSS
VL: DVQMTQSPSSLSASVGDRVSITCKASQDVSIAVAWYQQKPGKAPKLLIYSASYRYTGVPDRFSGSGSGTDFTLTISSLQPEDFAVYYCQQHYITPLTFGAGTKLEIK
Consider B8, for which the binding result in assay [2] is given as “binds”.

B9: HCB2-2 (antibody, V domains shown)
VH: QVQLVQSGAEVKKPGASVKVSCKASGYIFNTYGISWVRQAPGQGLEWMGWTNVYNSNTDSGHKFQGRVTMTTDTSTDTAYMELRSLRSDDTAVYYCARDPGSAIFDMWGQGTMVTVSS
VL: DVQMTQSPSSLSASVGDRVSITCRASQSISSFLNWYQQRPGKAPELLIYGASSLQSGVPSRFSGSGSGTDFTLTISSLQPEDFATYYCQQSYSIPITFGQGTRLEIK
notes: also called HCB2-2_HC; HCB2-2_LC
Regarding B9, the binding result in assay [2] is listed as “binds”.

B10: B2-14 (antibody, V domains shown)
VH: QVQLVQSGAEVKKPGSSVKVSCKASGGTFSSYAISWVRQAPGQGLEWMGGIIPIFGTANYAQKFQGRVTITADESTSTAYMELSSLRSEDTAVYYCARASMVETYFDYWGQGTMVTVSS
VL: QSVLTQPRSVSGSPGQSVTISCTGTSSDVGGYNYVSWYQQHPGKAPKLMISEVSKRPSGVPDRFSGSKSGNTASLTVSGLQAEDEADYYCSSYAGGYTPYVFGTGTKVTVL
notes: also called B2-14_HC; B2-14_LC
On to B10, for which the “% of cells anti-hIgG APC+” value in assay [1] is 3.74%. Besides, the EC50 with LILRB2-His antigen came to 1.97 nM.

B11: B2-30 (antibody, human IgG1, V domains shown)
VH: QVQLVESGGGLVQPGGSLRLSCAASGFTFSSYDMHWVRQATGKGLEWVSAIGTAGDTYYPGSVKGRFTISRENAKNSLYLQMNSLRAGDTAVYYCARAKEYCSGGSCQDAFDIWGQGTMVSVSS
VL: QSPSSLSASVGDRVTITCRASQSIRTYLNWYQQKPGKDPELLIYAATSLQSGVPSRFTGSGSGTDFTLTISSLQPEDFATYYCQQSYSAPVFTFGQGTKLEIK
notes: also called B2-30_HC; B2-30_LC
On to B11, for which, in assay [1], the “% of cells anti-hIgG APC+” value came to 4.92%. This molecule had an EC50 with LILRB2-His antigen of 1.19 nM.

B12: B2-1 (antibody, V domains shown)
VH: EVQLVQSGAEVKKPGSSVKVSCKASGGTFSSYAISWVRQAPGQGLEWMGGIIPIFGTANYAQKFQGRVTITADKSTSTAYMELSSLRSEDTAVYYCARGNQGDTAFDIWGQGTTVIVSS
VL: QSALNQPASVSGSPGQSITISCTGTSSDVGGYNYVSWYQQHPGKAPKLMIYDVSNRPSGVSNRFSGSKSGNTASLTISGLQAEDEADYYCSSYTSSSTPYVFGTGTKVTVL
notes: also called B2-1_HC; B2-1_LC
With B12, the “% of cells anti-hIgG APC+” value in assay [1] came out at 1.69%.

B13: B2-13 (antibody, V domains shown)
VH: QVQLVQSGAEVKKPGSSVKVSCKASGGTFSSYAISWVRQAPGQGLEWMGGIIPIFGTANYAQKFQGRVTITADESTSTAYMELSSLRSEDTAVYYCARSDYGDSYFDYWGQGTLVSVSS
VL: QAVVTQPASVSGSPGQSVSISCTGTSSDVGGFNYVSWYQQHPGKAPKLMIYDVSNRPSGVSNRFSGSKSGNTASLTISGLQAEDEADYYCSSYTSSTAPYVFGTGTKVTVL
notes: also called B2-13_HC; B2-13_LC
As to B13, the “% of cells anti-hIgG APC+” value in assay [1] is 1.23%. Further, in the assay with LILRB2-His antigen, the EC50 was 5.15 nM.

B14: B2-27 (antibody, human IgG1, V domains shown)
VH: QVQLVQSGAEVKKPGSSVKVSCKASGGTFSSYAISWVRQAPGQGLEWMGGIIPIFGTANYAQKFQGRVTITADESTSTAYMELSSLRSEDTAVYYCARESYSSSSFDYWGQGTTVSVSS
VL: QPVLTQPASVSGSPGQSITISCTGTSSDVGGYNYVSWYQQHPGKAPKLMIYDVSNRPSGVSNRFSGSKSGNSASLTISGLQAEDEADYYCSSYTSSSTPYVFGTGTKVTVL
notes: also called B2-27_HC; B2-27_LC
For the molecule B14, in assay [1], the “% of cells anti-hIgG APC+” value is 1.1%. Further, it took 379 nM to reach a half-maximal effect in the assay with LILRB2-His antigen (EC50).

B15: B2-26 (antibody, V domains shown)
VH: QVQLVQSGAEVKKPGASVKVSCKASGYTFTSYGISWVRQAPGQGLEWMGWISAYNGNTNYAQKLQGRVTMTTDTSTSTAYMELRSLRSDDTAVYYCARDRGGWFDPWGQGTLVIVSS
VL: QSPSSLSASVGDRVTITCRASQSISNFVNWYQQKPGEVPKLLIYGASSLQSGVPSRFSGSGSGTDFTLTISSLQPEDFATYYCQQGYSVPLTFGGGTTVDIK
notes: also called B2-26_HC; B2-26_LC
As to B15, the “% of cells anti-hIgG APC+” value in assay [1] was 0.12%. This molecule also came in with an EC50 in the assay with LILRB2-His antigen of 1.02 nM.

B16: B2-9 (antibody, human IgG1, V domains shown)
VH: QVQLVQSGAEVKKPGASVKVSCKASGYTFTSYGISWVRQAPGQGLEWMGWISAYNGNTNYAQKLQGRVTMTTDTSTSTAYMELRSLRSDDTAVYYCARDGYGMDVWGQGTTVTVSS
VL: QSPSSLSASVGDRVTITCRTSHTVNSYLNWYQQEPGKAPKLLIYAASNLQSGVPSRFSGSGSGTDFSLTIHNLQPEDFATYYCQQSYRTPLTFGQGTKVDIK
notes: also called B2-9_HC; B2-9_LC
Turning to B16, in assay [1], the “% of cells anti-hIgG APC+” value is 0.09%. Besides, a half-maximal response with LILRB2-His antigen (EC50) required 0.608 nM.

B17: B2-22 (antibody, V domains shown)
VH: QVQLVQSGAEVKKPGASVKVSCKASGYTFTSYGISWVRQAPGQGLEWMGWISAYNGNTNYAQKLQGRVTMTTDTSTSTAYMELRSLRSDDTAVYYCARVGSYGDYWGQGTLVTVSS
VL: QSPSSLSASVGDRVTITCRASQGISNYLAWYQQKPGKVPKLLIYAASTLQSGVPSRFSGSGSGTDFTLTISSLQPEDVATYYCQKYNSAPLTFGGGTKLEIK
notes: also called B2-22_HC; B2-22_LC
For B17, in assay [1], the “% of cells anti-hIgG APC+” value worked out at 0.19%. Also, the response in the assay with LILRB2-His antigen was half-maximal at 0.348 nM (EC50).
